This passage reports Kd and Neutralization IC50 (RSV subtype A) results from patent publication US20260258115A1.

By Kd is commonly meant the equilibrium constant for the complex coming apart.

In test [1] the target is RSV prefusion F (preF), DS-Cav1 (Respiratory Syncytial Virus). Kind of test: BLI, IgG on anti-human IgG sensor, 100 nM antigen. (In general: BLI is a label-free optical method that tracks binding on a fibre tip over time.)
Test [2] has as its target RSV postfusion F (postF), F deltaFP (Respiratory Syncytial Virus). The experiment in a line: BLI, IgG on anti-human IgG sensor, 100 nM antigen.
In test [3] the target is Respiratory Syncytial Virus fusion glycoprotein (RSV F) on RSV-A2 virus (Respiratory Syncytial Virus subtype A (RSV-A2)). The experiment in a line: cell-based or functional assay.

B1: ADI-41144 (antibody, V domains shown)
VH: EVQLVQSGAEVKKPGGSVKVSCKASGYTFSEYYMHWVRQAPGQGPEWVGRINPKSGRTNYAQNFQGRVTMTRDRSISTVYMDLSRLRSDDTAVYYCARWEVMDYGSGIYYNQDHFDYWGQGTLVTVSS
VL: DIRVTQSPSSLSASVGDRVTITCRASQDITNYLAWFQQKPGKAPKSLMYAASTLQSGVPSRFSGSGSGTDFTLTISSLQPEDFATYYCQQYKTYPITFGQGTRLEIK
Regarding B1, the values for the equilibrium dissociation constant (Kd) in test [1] and in test [2] were 0.94 nM and 0.759 nM, respectively. In test [3], this molecule returned a Neutralization IC50 (RSV subtype A) of 0.37 µg/mL.

B2: ADI-41169 (antibody, V domains shown)
VH: EVQLVESGAEVKKPGESLKISCEAFGYSFTSYWIGWVRQVPGRGLEWIGVIYPGDSDIRYTPSFRGQVTISADRSISTAYLQWNNLKASDTAMYYCARPGRDINYYHSRDYGALDIWGQGTTVTVSS
VL: DIQLTQSPDSLAVSLGERVTINCKSSQSFLYSSNNKNYLAWYQQKPGQPPKLLIYWASVRESGVPDRFSGSGSGTDFTLTISSLQAEDVAVYYCQEYYSPPMFTFGQGTKVEIK
B2: the Kd worked out at 4.94 nM in test [1] and 1.19 nM in test [2]. Also, the Neutralization IC50 (RSV subtype A) in test [3] is over 25 µg/mL.

B3: ADI-41153 (antibody, V domains shown)
VH: EVQLVESGGGLVKPGGSLRLSCAASQFTFSTYDMSWVRQAPGKGLEWVASISSGSTYIYYADSVKGRFTISRDNAKHSLFLQMKSLRAEDTALYYCARQVLYDRGGYYLYYFDHWGQGTLVTVSS
VL: DIQVTQSPSSLSASVGDRVTITCRASQTIASYLNWYQQKPGKAPNLLIYAASNLQSGVPSRFSGSGSGTEFTLTINTLQPEDFATYYCQQSYNFPYTFGQGTKVEIK
As to B3, the Kd in test [1] is 0.928 nM; in test [2], 0.445 nM. The molecule also displayed a Neutralization IC50 (RSV subtype A) in test [3] of over 25 µg/mL.

B4: ADI-41146 (antibody, V domains shown)
VH: QVQLVQSGAEVKKPGESLKISCKGSGHSFATFWIGWVRQVPGNGLELMGIINLGDSDTKYSPSFQGQVTISADESIGTAYLQWSSLKASDTAMYYCARVSLPHYYYYMDVWGKGTTVTVSS
VL: DIVMTQSPSSVSASVGDRVTITCRASQGISTWLAWYRQKPGKAPELLIYAASRLQSGVPSRFSGSGSGTDFTLTISSLQPEDFATYYCQQANSFLGAFGPGTKLEIK
B4: the Kd came out at 4.44 nM in test [1] and 0.746 nM in test [2]. This molecule also gave a Neutralization IC50 (RSV subtype A) in test [3] of over 25 µg/mL.

B5: ADI-41170 (antibody, V domains shown)
VH: EVQLLESGGGLIQPGGSLRLSCAASGFTFNNYVMSWVRQAPGKGLEWVAAISSSGVSTYYAASVKGRFTISRDNSKNMLYVQLNSLRAEDTAVYYCAKETGSYYYFDSWGQGTLVTVSS
VL: ETTLTQSPSTLSGSVGDRVTITCRASESISSWLAWYQQKPGKAPKLLIYKASNLESGVPSRFSGSGSGTEFTLTISSLQPDDFATYYCQQYNSYLITFGQGTRLEIK
As to B5, the Kd in test [1] was 5.67 nM; in test [2], 2.64 nM. This molecule gave a Neutralization IC50 (RSV subtype A) in test [3] of over 25 µg/mL.

B6: ADI-41166 (antibody, V domains shown)
VH: EVQLVQSGAEVKKPGASVKVSCKTSGYTFTGDYLHWVRQAPGQGLEWMGRLNPKSGGTVYAQRFQGRVTMTGDTSVTTAYMQLTRLRSDDTAIYYCARGIPVSGPVSIDYWGQGTLVTVSS
VL: QSVLTQPASLSGSPGQSITISCTGTSSDVGGYGYVSWYQQHPGKAPKLMIYDVANRPSGVSHRFSGSKSGNTASLTISGLQADDEADYYCSSYTRSNTVVFGGGTKLTVL
Turning to B6, the figures for the Kd in test [1] and in test [2] were 3.15 nM and 0.44 nM, respectively. Moreover, the Neutralization IC50 (RSV subtype A) in test [3] is over 25 µg/mL.

B7: ADI-41163 (antibody, V domains shown)
VH: QVQLVQSGGGVVQPGRSLRLSCAASGFPFHSYAMHWVRQAPGKGLEWVAVIWYEGSEKHYADSVQGRFTISRDNSKNMLYLQMNNLRVADTAVYYCARRGAWGFDIWGQGTTVTVSS
VL: DIVMTQTPLSLPVTPGEPASISCRSSQSVLHSTGYNSLDWYLQKPGQSPQLLIFLGSNRASGVPDRFSGSGSGTDFTLKISRVEAEDVGVYYCMQGLQTPYTFGQGTKVEIK
Consider B7, for which the Kd was 4.65 nM in test [1] and 0.604 nM in test [2]. The molecule further returned a Neutralization IC50 (RSV subtype A) in test [3] of over 25 µg/mL.

B8: ADI-41154 (antibody, V domains shown)
VH: QVQLQQWGAGLSKPSETLSVTCAVYGGSLSGHYWSWFRQPPGKGLEWIGEIDHSGSTTYNPSLKSRVTISVDTSKNQFSLKLTSVTAADTAMYYCARATRYNYGYTFDYWGQGTLVTVSS
VL: DIPLTQSPSSLSASVGDRVTITCRASQIISSYLNWYQQKPGKAPKLLIYAASTLQSGVPSRFSGSRSGTDFTLTISSLQPEDFASYYCQQSYIIPFTFGPGTKVEIK
On to B8, for which the Kd in test [1] is 4.63 nM; in test [2] it was 1.35 nM. For the same molecule, the Neutralization IC50 (RSV subtype A) in test [3] was over 25 µg/mL.

B9: ADI-41162 (antibody, V domains shown)
VH: EVQLVQSGAEVKKPGSSVKVSCKASGVTGGTFSSYAISWVRQAPGQGLEWMGGIMPMFGTTNYAQKFQGRVTITADKSTSTAYMELSSLRSEDTAVYYCARDYRDFSPHLDYYYMDVWGKGTTVTVSS
VL: DIRLTQSPGTLSLSPGERATLSCRASQSVSTSYLAWYQQKPGQAPRLLIYGASNRATGIPDRFSGSGSGTDFTLTISRLEPEDFAVYYCQQYGRTSWTFGQGTKVDIK
As for B9, the results for the Kd in test [1] and in test [2] were 4.06 nM and 0.748 nM, respectively. The Neutralization IC50 (RSV subtype A) in test [3] is over 25 µg/mL.

B10: ADI-41161 (antibody, V domains shown)
VH: EVQLVESGGGLVQPGGSLRLSCAASGFTFSTFEFNWVRQAPGKGLEWLSYISSDDTTRYYADSVKGRFTISRDNAKNSLYLQMNSLRAEDTAYYYCVRGGPYDYVWGTYRYFDFWGQGTLVTVSS
VL: QSVLTQPASVSGSPGQSITISCTGTSSDIGGYNYVSWYQQHPGKAPKLMIYDVTNRPLGVSNRFSGSKSGNTASLIISGLQAEDEAEYYCCSYTSSNSLVFGGGTKLTVL
B10: the values for the Kd in test [1] and in test [2] were 2.54 nM and 0.364 nM, respectively. For the same molecule, the Neutralization IC50 (RSV subtype A) in test [3] was over 25 µg/mL.

B11: ADI-41149 (antibody, V domains shown)
VH: QVQLVQSGGGVVQPGRSLRLSCAASGFTFSDYGMHWVRQAPGKGLEWVAVIWFDGSNKNYADSVKGRFTISRDNSMNTLYLQMNNLRAEDTAVYYCARAPYSFWSGYYLDYWGQGSLVTVSS
VL: DIVMTQSPATLSVSPGERATLSCRASQSISSNLAWYQQKSGQAPRLLIYGASTRATGIPARFSGSGSGTEFTLTISSLQSEDFAVYSCQQYSKWPQTFGQGTKVEIK
As to B11, the Kd in test [1] was 4.34 nM; in test [2], 0.857 nM. This molecule showed a Neutralization IC50 (RSV subtype A) in test [3] of over 25 µg/mL.

B12: ADI-41160 (antibody, V domains shown)
VH: QVQLVQSGAEVKKPGSSVKVSCKASGGTFSSYPIIWVRQAPGQGLEWMGRIIPILGIASYAQKFQGRVTITADKSTSTAYMELSSLRSEDTAVYYCARNSDFYYGMDVWGQGTTVTVSS
VL: QSALIQPASVSGSPGQSITISCTGTSSDVGGYNYVSWYQHHPGKAPKLMIYDVSNRPSGISNRFSGSKSGNTASLTISGLQAEDEADYYCSSYTSSSLYVFGTGTKVTVL
Turning to B12, the Kd in test [1] stood at 2.41 nM; in test [2] it was 0.337 nM. This molecule also yielded a Neutralization IC50 (RSV subtype A) in test [3] of over 25 µg/mL.

B13: ADI-41155 (antibody, V domains shown)
VH: QVQLQESGPGLVKPSETLSLTCTVSGGSIGNNFYYWGWIRQPPGKGLEWIGSIYYSGTTYDNPSLKSRVTISVEPSKNQFSLKLSSVTAADTAVYHCARRYCDSTRCYEAFDIWGQGTTVTVSS
VL: SYELTQPPSASGTPGQRVTISCSGSSSNIGSNYVSWYQQLPGTAPKLLIYKNDQRPSGVPDRFSGSKSGTSASLAISGLRSEDEAEYYCAAWDDSLSGFYVFGTGTKVTVL
B13: the results for the Kd in test [1] and in test [2] were 3.52 nM and 0.478 nM, respectively. The same molecule returned a Neutralization IC50 (RSV subtype A) in test [3] of over 25 µg/mL.
